Experimental data as given in patent US20240117062A1 (Sanofi, published 2024).

Tests used:
[1] = molecular target: T1, BCMA protein on MM1R cells (UniProt Q02223 1-184, limits assumed); experiment: flow cytometry on MM1R cells
T1 construct: whole, on cells; also called BCMA proteins on MM1R cell membrane surfaces
T1 sequence (looked up): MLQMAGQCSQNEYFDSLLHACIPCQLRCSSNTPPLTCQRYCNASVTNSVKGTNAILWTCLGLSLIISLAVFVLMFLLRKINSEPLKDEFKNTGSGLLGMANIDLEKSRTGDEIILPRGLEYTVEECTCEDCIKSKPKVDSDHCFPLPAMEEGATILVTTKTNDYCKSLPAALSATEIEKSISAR
Protocol: HEK 293 cells or MM1R cells (0.5×10⁶) were aliquoted into separate FACS tubes and were labelled as unstained, test sample or positive control. Hybridoma sup (20 μL) or purified CA10 or positive control (1 μg/mL, 5 μL) were added to the cells and incubated on ice for 30 minutes. […] The supernatant was poured off and the cells were gently vortexed to mix. 50 μL of 1:500 dilution of FITC conjugated goat anti-human (or mouse) H+L specific secondary antibody was added to the cells, and the cells were incubated on ice or at 4° C. for 30 minutes in the dark. […] The supernatant was discarded, and the cells were resuspended in 150-200 μL of FACS buffer. The cells were acquired on a BD FACS Canto and data analyzed using Flojo V10. Software.

Cyno BCMA-Avi-His = molecular target: T2, Cyno BCMA-Avi-His (cynomolgus, UniProt A0A2K5UD97 2-53); experiment: SPR (Biacore T100), antibody captured on Protein A chip, antigen as analyte
T2 construct: SPR analyte; also called cynomolgus BCMA Avi-His protein
T2 sequence (A0A2K5UD97 entry or part of it): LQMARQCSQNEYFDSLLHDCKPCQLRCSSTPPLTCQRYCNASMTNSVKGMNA
Protocol: (§1) 1×HBS-EP+ was prepared in MilliQ water, filtered, and degassed. A BIACORE™ T100 was primed with 1×HBS-EP+. The immobilized chip […] BIACORE™ control software was used.
(§2) The antibodies were diluted to 20 μg/mL in HBS-EP+. Seven 1:1 serial dilutions of the antigens were prepared (80 nM final concentration), and 1×HBS-EP+ was used as a 0 nm control. 1×HBS-EP+ was used for start-up injections and HCl (12 mM) was used for regeneration. The samples were run, and the data were analyzed using the BIACORE™ T100 software.

Human BCMA-Avi-His = molecular target: T3, Human BCMA-Avi-His (human, UniProt Q02223 2-54); experiment: as above
T3 construct: SPR analyte; also called human BCMA Avi-His protein
T3 sequence (looked up): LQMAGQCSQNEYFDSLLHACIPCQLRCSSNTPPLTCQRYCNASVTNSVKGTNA
Protocol: as §1, §2

[2] = molecular target: T4, cynomolgus BCMA protein (ELISA antigen) (cynomolgus, UniProt A0A2K5UD97 1-53); experiment: ELISA on coated BCMA antigen
T4 construct: also called Cyno BCMA; BCMA antigen
T4 sequence (A0A2K5UD97 entry or part of it): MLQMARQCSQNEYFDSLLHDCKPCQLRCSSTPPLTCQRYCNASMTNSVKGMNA

Cyno BCMA DTA-His = molecular target: T5, Cyno BCMA DTA-His (cynomolgus); experiment: SPR (Biacore T100), antibody captured on Protein A chip, antigen as analyte
T5 construct: SPR analyte, Mw 28,203 Da; also called Cyno DTA His; cynomolgus BCMA DTA-His protein
T5 sequence (P00588 32-225, tags or fused parts left off): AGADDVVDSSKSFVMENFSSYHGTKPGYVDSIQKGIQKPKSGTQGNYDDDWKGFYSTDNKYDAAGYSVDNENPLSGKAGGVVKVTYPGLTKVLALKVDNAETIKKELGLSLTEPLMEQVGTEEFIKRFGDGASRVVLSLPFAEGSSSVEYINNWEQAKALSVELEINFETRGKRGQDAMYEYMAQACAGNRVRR
Protocol: as §1, §2

B1: CA10_parental (antibody, V domains shown)
VH: QVQLVESGGGVVQPGRSLRLSCAASGFTFSNFGMHWVRQAPGRGLEWVAVIWSDETNRYYADSVKGRFTVSRDNVKSTVYLQMNSLISEDTAVYYCARDQQYCSSDSCFTWFDPWGQGTLVTVSS
VL: QVVVTQESALTTSPGETVTLTCRSSTGTVTPSNYANWVQEKPDHFFTGLIGDNNSRPPGVPARFSASLIGDKAALTITGAQTEDEAMYFCALWFGNQWVFGGGTKVTVL
notes: tested as a mAb purified on mAbSelect SuRe; also called CA10_V2_parental; CA10 WT
B1: binds [1]; binds (Cyno BCMA-Avi-His); binds (Human BCMA-Avi-His).

B2: CA10 Variant 5 (CA10_PE_V5) (antibody, V domains shown)
VH: QVQLVESGGGVVQPGRSLRLSCAASGFTFSNFGMHWVRQAPGRGLEWVAVIWSDETNRYYADSVKGRFTVSRDNVKSTVYLQMNSLISEDTAVYYCARDQQYCSSDSCFTWFDPWGQGTLVTVSS
VL: QTVVTQEPSLTVSPGGTVTLTCASSTGAVTSGYYANWVQQKPGQAPRALIGDNNIKPSWTPARFSGSLLGGKAALTLSGVQPEDEAEYYCALYYGGQWVFGGGTKLTVL
B2: no binding [2]; no binding (tested: antigen up to 80 nM) (Cyno BCMA DTA-His); no binding (tested: antigen up to 80 nM) (Cyno BCMA-Avi-His).

B3: CA10 Variant 2 (antibody, V domains shown)
VH: QVQLVESGGGVVQPGRSLRLSCAASGFTFSNFGMHWVRQAPGRGLEWVAVIWSDETNRYYADSVKGRFTVSRDNVKSTVYLQMNSLISEDTAVYYCARDQQYCSSDSCFTWFDPWGQGTLVTVSS
VL: QTVVTQEPSLTVSPGGTVTLTCASSTGTVTPSNYANWVQQKPGQAPRGLIGDNNSRPPGTPARFSASLLGGKAALTLSGVQPEDEAEYYCALWFGNQWVFGGGTKLTVL
B3: binds [1]; binds (Cyno BCMA-Avi-His); binds (Human BCMA-Avi-His).

B4: CA10 Variant 1 (antibody, V domains shown)
VH: QVQLVESGGGVVQPGRSLRLSCAASGFTFSNFGMHWVRQAPGRGLEWVAVIWSDETNRYYADSVKGRFTVSRDNVKSTVYLQMNSLISEDTAVYYCARDQQYCSSDSCFTWFDPWGQGTLVTVSS
VL: QTVVTQEPSLTVSPGGTVTLTCRSSTGTVTPSNYANWVQQKPDHFFTGLIGDNNSRPPGVPARFSASLIGDKAALTLSGVQPEDEAEYYCALWFGNQWVFGGGTKLTVL
B4: binds [1]; binds (Cyno BCMA-Avi-His); binds (Human BCMA-Avi-His).

B5: CA10 Variant 3 (antibody, V domains shown)
VH: QVQLVESGGGVVQPGRSLRLSCAASGFTFSNFGMHWVRQAPGRGLEWVAVIWSDETNRYYADSVKGRFTVSRDNVKSTVYLQMNSLISEDTAVYYCARDQQYCSSDSCFTWFDPWGQGTLVTVSS
VL: QTVVTQEPSLTVSPGGTVTLTCASSTGAVTPSNYANWVQQKPGQAPRGLIGDNNIKPPWTPARFSGSLLGGKAALTLSGVQPEDEAEYYCALWYGGQWVFGGGTKLTVL
B5: binds [1]; binds (Cyno BCMA-Avi-His); binds (Human BCMA-Avi-His).

B6: CA10 Variant 6 (antibody, V domains shown)
VH: QVQLVESGGGVVQPGRSLRLSCAASGFTFSNFGMHWVRQAPGRGLEWVAVIWSDETNRYYADSVKGRFTVSRDNVKSTVYLQMNSLISEDTAVYYCARDQQYCSSDSCFTWFDPWGQGTLVTVSS
VL: QTVVTQEPSLTVSPGGTVTLTCASSTGTVTPSNYANWVQQKPGQFPRGLIGDNNSRPPGTPARFSASLLGGKAALTLSGVQPEDEAEYYCALWFGNQWVFGGGTKLTVL
B6: binds [1]; binds (Cyno BCMA-Avi-His); binds (Human BCMA-Avi-His).

B7: CA10 Variant 4 (antibody, V domains shown)
VH: QVQLVESGGGVVQPGRSLRLSCAASGFTFSNFGMHWVRQAPGRGLEWVAVIWSDETNRYYADSVKGRFTVSRDNVKSTVYLQMNSLISEDTAVYYCARDQQYCSSDSCFTWFDPWGQGTLVTVSS
VL: QTVVTQEPSLTVSPGGTVTLTCASSTGAVTPGYYANWVQQKPGQAPRGLIGDNNNKPPWTPARFSGSLLGGKAALTLSGVQPEDEAEYYCALYYGGQWVFGGGTKLTVL
B7: binds [1].
